Measurements from paper PMC5531254.

Assays:
PIH1D1 [1] = biological target: PIH1D1 (UniProt Q9NWS0); experiment: anti-FLAG co-IP, MYC blot; details: reference: FLAG MRE11 wild type
PIH1D1 [2] = biological target: PIH1D1 (UniProt Q9NWS0); experiment: GST pull-down with FLAG-purified MRE11; details: reference: FLAG MRE11 wild type

binding against the reference (PIH1D1 [1]; sites S688,S689)	binding against the reference (PIH1D1 [2]; sites S688,S689)	binding against the reference (PIH1D1 [1]; sites S558,S561)	binding against the reference (PIH1D1 [2]; sites S558,S561)	Substance
weaker	weaker	–	–	MRE11 (from UniProt P49959) M3 (S688A/S689A)
–	–	weaker	weaker	MRE11 (from UniProt P49959) M1 (S558A/S561A)
